Reference: US20240400696A1

B1: AC3402 (bispecific antibody, V domains shown)
VH: EVQLLESGGGIVQPGGSLKLSCAASGFTFNTYAMNWVRQAPGKGLEWVARIRSKPNNYATYYADSVKDRFTISRDDSKNTVYLQMNNLKTEDTAVYYCVRHENFGNSYVSWFAHWGQGTLVTVSS
VL: ELVVTQEPSLTVSPGGTVTLTCRSSNGAVTSSNYANWVQQKPGQAPRGLIGGTNKRAPGTPARFSGSLLGGKAALTLSGVQPEDEAVYYCALWYPNLWVFGGGTKLTVL
B2: AC3403 (bispecific antibody, V domains shown)
VH: EVQLLESGGGIVQPGGSLKLSCAASGFTFNTYAMNWVRQAPGKGLEWVARIRSKTNNYATYYADSVKDRFTISRDDSKNTVYLQMNNLKTEDTAVYYCVRHENFGNSYVSWFAHWGQGTLVTVSS
VL: ELVVTQEPSLTVSPGGTVTLTCRSSNGAVTSSNYANWVQQKPGQAPRGLIGGTNKRAPGTPARFSGSLLGGKAALTLSGVQPEDEAVYYCALWYPNLWVFGGGTKLTVL
B3: AC3404 (bispecific antibody, V domains shown)
VH: EVQLLESGGGIVQPGGSLKLSCAASGFTFNTYAMNWVRQAPGKGLEWVARIRSKWNNYATYYADSVKDRFTISRDDSKNTVYLQMNNLKTEDTAVYYCVRHENFGNSYVSWFAHWGQGTLVTVSS
VL: ELVVTQEPSLTVSPGGTVTLTCRSSNGAVTSSNYANWVQQKPGQAPRGLIGGTNKRAPGTPARFSGSLLGGKAALTLSGVQPEDEAVYYCALWYPNLWVFGGGTKLTVL
B4: AC3406 (bispecific antibody, V domains shown)
VH: EVQLLESGGGIVQPGGSLKLSCAASGFTFNTYAMNWVRQAPGKGLEWVARIRSKYENYATYYADSVKDRFTISRDDSKNTVYLQMNNLKTEDTAVYYCVRHENFGNSYVSWFAHWGQGTLVTVSS
VL: ELVVTQEPSLTVSPGGTVTLTCRSSNGAVTSSNYANWVQQKPGQAPRGLIGGTNKRAPGTPARFSGSLLGGKAALTLSGVQPEDEAVYYCALWYPNLWVFGGGTKLTVL
B5: AC3407 (bispecific antibody, V domains shown)
VH: EVQLLESGGGIVQPGGSLKLSCAASGFTFNTYAMNWVRQAPGKGLEWVARIRSKYNDYATYYADSVKDRFTISRDDSKNTVYLQMNNLKTEDTAVYYCVRHENFGNSYVSWFAHWGQGTLVTVSS
VL: ELVVTQEPSLTVSPGGTVTLTCRSSNGAVTSSNYANWVQQKPGQAPRGLIGGTNKRAPGTPARFSGSLLGGKAALTLSGVQPEDEAVYYCALWYPNLWVFGGGTKLTVL
B6: AC3408 (bispecific antibody, V domains shown)
VH: EVQLLESGGGIVQPGGSLKLSCAASGFTFNTYAMNWVRQAPGKGLEWVARIRSKYNEYATYYADSVKDRFTISRDDSKNTVYLQMNNLKTEDTAVYYCVRHENFGNSYVSWFAHWGQGTLVTVSS
VL: ELVVTQEPSLTVSPGGTVTLTCRSSNGAVTSSNYANWVQQKPGQAPRGLIGGTNKRAPGTPARFSGSLLGGKAALTLSGVQPEDEAVYYCALWYPNLWVFGGGTKLTVL
B7: AC3409 (bispecific antibody, V domains shown)
VH: EVQLLESGGGIVQPGGSLKLSCAASGFTFNTYAMNWVRQAPGKGLEWVARIRSKYNNGATYYADSVKDRFTISRDDSKNTVYLQMNNLKTEDTAVYYCVRHENFGNSYVSWFAHWGQGTLVTVSS
VL: ELVVTQEPSLTVSPGGTVTLTCRSSNGAVTSSNYANWVQQKPGQAPRGLIGGTNKRAPGTPARFSGSLLGGKAALTLSGVQPEDEAVYYCALWYPNLWVFGGGTKLTVL
B8: AC3410 (bispecific antibody, V domains shown)
VH: EVQLLESGGGIVQPGGSLKLSCAASGFTFNTYAMNWVRQAPGKGLEWVARIRSKYNNFATYYADSVKDRFTISRDDSKNTVYLQMNNLKTEDTAVYYCVRHENFGNSYVSWFAHWGQGTLVTVSS
VL: ELVVTQEPSLTVSPGGTVTLTCRSSNGAVTSSNYANWVQQKPGQAPRGLIGGTNKRAPGTPARFSGSLLGGKAALTLSGVQPEDEAVYYCALWYPNLWVFGGGTKLTVL
B9: AC3411 (bispecific antibody, V domains shown)
VH: EVQLLESGGGIVQPGGSLKLSCAASGFTFNTYAMNWVRQAPGKGLEWVARIRSKYNNWATYYADSVKDRFTISRDDSKNTVYLQMNNLKTEDTAVYYCVRHENFGNSYVSWFAHWGQGTLVTVSS
VL: ELVVTQEPSLTVSPGGTVTLTCRSSNGAVTSSNYANWVQQKPGQAPRGLIGGTNKRAPGTPARFSGSLLGGKAALTLSGVQPEDEAVYYCALWYPNLWVFGGGTKLTVL
B10: AC3412 (bispecific antibody, V domains shown)
VH: EVQLLESGGGIVQPGGSLKLSCAASGFTFNTYAMNWVRQAPGKGLEWVARIRSKYNNYGTYYADSVKDRFTISRDDSKNTVYLQMNNLKTEDTAVYYCVRHENFGNSYVSWFAHWGQGTLVTVSS
VL: ELVVTQEPSLTVSPGGTVTLTCRSSNGAVTSSNYANWVQQKPGQAPRGLIGGTNKRAPGTPARFSGSLLGGKAALTLSGVQPEDEAVYYCALWYPNLWVFGGGTKLTVL
B11: AC3413 (bispecific antibody, V domains shown)
VH: EVQLLESGGGIVQPGGSLKLSCAASGFTFNTYAMNWVRQAPGKGLEWVARIRSKYNNYTTYYADSVKDRFTISRDDSKNTVYLQMNNLKTEDTAVYYCVRHENFGNSYVSWFAHWGQGTLVTVSS
VL: ELVVTQEPSLTVSPGGTVTLTCRSSNGAVTSSNYANWVQQKPGQAPRGLIGGTNKRAPGTPARFSGSLLGGKAALTLSGVQPEDEAVYYCALWYPNLWVFGGGTKLTVL
B12: AC3414 (bispecific antibody, V domains shown)
VH: EVQLLESGGGIVQPGGSLKLSCAASGFTFNTYAMNWVRQAPGKGLEWVARIRSKYNNYATDYADSVKDRFTISRDDSKNTVYLQMNNLKTEDTAVYYCVRHENFGNSYVSWFAHWGQGTLVTVSS
VL: ELVVTQEPSLTVSPGGTVTLTCRSSNGAVTSSNYANWVQQKPGQAPRGLIGGTNKRAPGTPARFSGSLLGGKAALTLSGVQPEDEAVYYCALWYPNLWVFGGGTKLTVL
B13: AC3415 (bispecific antibody, V domains shown)
VH: EVQLLESGGGIVQPGGSLKLSCAASGFTFNTYAMNWVRQAPGKGLEWVARIRSKYNNYATEYADSVKDRFTISRDDSKNTVYLQMNNLKTEDTAVYYCVRHENFGNSYVSWFAHWGQGTLVTVSS
VL: ELVVTQEPSLTVSPGGTVTLTCRSSNGAVTSSNYANWVQQKPGQAPRGLIGGTNKRAPGTPARFSGSLLGGKAALTLSGVQPEDEAVYYCALWYPNLWVFGGGTKLTVL
B14: AC3416 (bispecific antibody, V domains shown)
VH: EVQLLESGGGIVQPGGSLKLSCAASGFTFNTYAMNWVRQAPGKGLEWVARIRSKYNNYATTYADSVKDRFTISRDDSKNTVYLQMNNLKTEDTAVYYCVRHENFGNSYVSWFAHWGQGTLVTVSS
VL: ELVVTQEPSLTVSPGGTVTLTCRSSNGAVTSSNYANWVQQKPGQAPRGLIGGTNKRAPGTPARFSGSLLGGKAALTLSGVQPEDEAVYYCALWYPNLWVFGGGTKLTVL
B15: AC3417 (bispecific antibody, V domains shown)
VH: EVQLLESGGGIVQPGGSLKLSCAASGFTFNTYAMNWVRQAPGKGLEWVARIRSKYNNYATYDADSVKDRFTISRDDSKNTVYLQMNNLKTEDTAVYYCVRHENFGNSYVSWFAHWGQGTLVTVSS
VL: ELVVTQEPSLTVSPGGTVTLTCRSSNGAVTSSNYANWVQQKPGQAPRGLIGGTNKRAPGTPARFSGSLLGGKAALTLSGVQPEDEAVYYCALWYPNLWVFGGGTKLTVL

What follows are binders tested against CD3 (assay: Octet, crude lysate).
CD3, sequence (P07766 23-126): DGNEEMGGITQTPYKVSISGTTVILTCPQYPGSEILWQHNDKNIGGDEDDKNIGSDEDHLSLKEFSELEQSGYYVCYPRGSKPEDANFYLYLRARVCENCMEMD
With B1 the Kd was 33.1 nM.
Work on B2 yielded a Kd of 11.1 nM.
In the case of B3, the Kd is reported as 10.5 nM.
B4 showed a Kd of 575 nM.
For B5, the Kd was 7.4 nM.
Work on B6 yielded a Kd of 8.3 nM.
Binder B7 has a Kd of 11.3 nM.
B8 gave a Kd of 6.1 nM.
In the case of B9, the Kd is reported as 7.8 nM.
B10 was tested, and the Kd was 8.2 nM.
In the case of B11, the Kd is reported as 10.7 nM.
For B12, the Kd was 939 nM.
In the case of B13, the Kd is reported as 183 nM.
B14 gave a Kd of 17.9 nM.
In the case of B15, the Kd is reported as 63.2 nM.
